Laboratory results: US20150307603A1 (MODIQUEST B V, published 2015)
Non-standard residues stand in square brackets, D forms with d. No end group written: not given here. Cit = NC(=O)NCCC[C@H](N)C(=O)O

Columns and labels:
CFC-1 [1] = target: T1, CFC-1; experiment: ELISA, Ab 0.0032 ug/well
T1 construct: Positive control for anti-citrulline reactivity; also called cfc1 XG; Cfc1-peptide
Text: (§1) The resulting OD (y-axis) is a measure for antibody binding. H1-recombinant histone 1; H1/p2-huPAD2 recombinant histone 1; H1/p4-huPAD4 recombinant histone 1, and so forth (x-axis).

[2] = target: T2, human recombinant histone 2B (human); experiment: ELISA, Ab 0.0032 ug/well
T2 construct: Non-deiminated; also called H2B
Text: as §1

msFibα XH [3] = target: T3, msFibα XH (mouse, X at position 15 = citrulline; biotin-labelled); experiment: ELISA, Ab 0.000128 ug/well
T3 peptide: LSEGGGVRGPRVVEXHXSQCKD
Experimental: (§2) Biotin and citrulline-containing peptides derived from fibrinogen and vimentin were immobilized on NEUTRAVIDIN®-coated 96-well ELISA plates (0.3 μg/well). CFC-1 and CFC-0 were coated at the same concentration and served as positive and negative controls, respectively, for specific anti-citrulline reactivity and as coating controls. Non-coated wells were used to test for aspecific binding of the antibodies. […] Detection of bound anti-citrulline antibodies was performed by incubating the wells with rabbit anti-human HRP (1:2000) for 1 hour at RT followed by incubation with TMB substrate. The resulting OD (y-axis) is a measure for antibody binding.
(§3) Biotin-labeled and citrulline-containing fibrinogen and vimentin peptides (Table 5) were also tested for reactivity with the therapeutic antibodies. Peptides were coated on 96-well NEUTRAVIDIN®-ELISA plates.

huFibα XG [4] = target: T4, huFibα XG (human, X at position 8 = citrulline; biotin-labelled); experiment: ELISA, Ab 0.000128 ug/well
T4 peptide: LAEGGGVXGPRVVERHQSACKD
Experimental: as §2, §3

CFC-1 [5] = target: T1, CFC-1; experiment: ELISA, Ab 0.000128 ug/well
Experimental: as §2, §3

msFibβ XG [6] = target: T5, msFibβ XG (mouse, also: biotin-labelled); experiment: ELISA, Ab 0.000128 ug/well
T5 construct: also called mouse fibrinogen β peptide
T5 peptide: EPTDSLDA[Cit]GHRPVDRR
Experimental: as §2, §3

huFibα XH [7] = target: T6, huFibα XH (human, X at position 15 = citrulline; biotin-labelled); experiment: ELISA, Ab 0.000128 ug/well
T6 peptide: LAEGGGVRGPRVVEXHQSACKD
Experimental: as §2, §3

msFibα XG [8] = target: T7, msFibα XG (mouse, X at position 8 = citrulline; biotin-labelled); experiment: ELISA, Ab 0.000128 ug/well
T7 peptide: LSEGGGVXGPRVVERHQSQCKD
Experimental: as §2, §3

msVim XS/XL [9] = target: T8, msVim XS/XL (mouse, also: biotin-labelled); experiment: ELISA, Ab 0.000128 ug/well
T8 construct: also called mouse vimentin peptide
T8 peptide: YVT[Cit]SSAV[Cit]L[Cit]SSVP
Experimental: as §2, §3

[10] = target: T9, huPAD4-deiminated human recombinant histone 3 (human); experiment: ELISA, Ab 0.000128 ug/well
T9 construct: also called H3/p4
Text: as §1

[11] = target: T10, huPAD2-deiminated human recombinant histone 2A (human); experiment: ELISA, Ab 0.000128 ug/well
T10 construct: also called H2A/p2; histone 2A/p2
Text: as §1

[12] = target: T11, huPAD2-deiminated human recombinant histone 3 (human); experiment: ELISA, Ab 0.000128 ug/well
T11 construct: also called H3/p2; histone 3/p2
Text: as §1

[13] = target: T12, huPAD4-deiminated human recombinant histone 2B (human); experiment: ELISA, Ab 0.000128 ug/well
T12 construct: also called H2B/p4
Text: as §1

[14] = target: T2, human recombinant histone 2B; experiment: ELISA, Ab 0.000128 ug/well
Text: as §1

[15] = target: T13, human recombinant histone 4 (human, UniProt P62805 2-103); experiment: ELISA, Ab 0.000128 ug/well
Text: as §1

[16] = target: T14, huPAD2-deiminated human recombinant histone 2B (human); experiment: ELISA, Ab 0.000128 ug/well
T14 construct: also called H2B/p2
Text: as §1

[17] = target: T9, huPAD4-deiminated human recombinant …; experiment: ELISA, Ab 0.4 ug/well
Text: as §1

CFC-1 [18] = target: T1, CFC-1; experiment: ELISA, Ab 0.4 ug/well
Text: as §1

[19] = target: T10, huPAD2-deiminated human recombinant …; experiment: ELISA, Ab 0.4 ug/well
Text: as §1

[20] = target: T11, huPAD2-deiminated human recombinant …; experiment: ELISA, Ab 0.4 ug/well
Text: as §1

[21] = target: T12, huPAD4-deiminated human recombinant …; experiment: ELISA, Ab 0.4 ug/well
Text: as §1

[22] = target: T15, human recombinant histone 2A (human); experiment: ELISA, Ab 0.4 ug/well
T15 construct: Non-deiminated; also called H2A
Text: as §1

[23] = target: T13, human recombinant histone 4; experiment: ELISA, Ab 0.4 ug/well
Text: as §1

[24] = target: T14, huPAD2-deiminated human recombinant …; experiment: ELISA, Ab 0.4 ug/well
Text: as §1

[25] = target: T16, human recombinant histone 3 (human); experiment: ELISA, Ab 0.4 ug/well
T16 construct: Non-deiminated; also called H3
Text: as §1

msFibα XH [26] = target: T3, msFibα XH; experiment: ELISA, Ab 0.08 ug/well
Experimental: as §2, §3

huFibα XG [27] = target: T4, huFibα XG; experiment: ELISA, Ab 0.08 ug/well
Experimental: as §2, §3

CFC-1 [28] = target: T1, CFC-1; experiment: ELISA, Ab 0.08 ug/well
Experimental: as §2, §3

msFibβ XG [29] = target: T5, msFibβ XG; experiment: ELISA, Ab 0.08 ug/well
Experimental: as §2, §3

huFibα XH [30] = target: T6, huFibα XH; experiment: ELISA, Ab 0.08 ug/well
Experimental: as §2, §3

msFibα XG [31] = target: T7, msFibα XG; experiment: ELISA, Ab 0.08 ug/well
Experimental: as §2, §3

msVim XS/XL [32] = target: T8, msVim XS/XL; experiment: ELISA, Ab 0.08 ug/well
Experimental: as §2, §3

B1: RhmAb2.102 (antibody, human IgG1, lambda)
heavy: not shown
light: QSVLTQPPSMSAAPGQKVTISCSGSSSNIGNNYVSWYQQVPGTAPKLLIYDDNKRPSGIPGRFSGSKSATSATLGITGLQAGDEADYYCGSWDDNLSVVLFGGGTKLTVLGQPKAAPSVTLFPPSSEELQANKATLVCLISDFYPGAVTVAWKADSSPVKAGVETTTPSKQSNNKYAASSYLSLTPEQWKSHRSYSCQVTHEGSTVEKTVAPTECS
notes: Human IgG1 lambda; also called Rhm2.102
For B1, the OD (CFC-1 [1]) was 0.178 OD450, the OD [2] was 0.05 OD450 and the OD (msFibα XH [3]) was 0.089 OD450. It also gave an OD (huFibα XG [4]) of 0.115 OD450, an OD (CFC-1 [5]) of 0.288 OD450 and an OD (msFibβ XG [6]) of 0.118 OD450. For the same binder, the OD (huFibα XH [7]) was 0.12 OD450, the OD (msFibα XG [8]) was 0.119 OD450 and the OD (msVim XS/XL [9]) was 0.133 OD450. It also gave an OD [10] of 0.06 OD450, an OD [11] of 0.063 OD450 and an OD [12] of 0.066 OD450. The OD [13] was 0.053 OD450, the OD [14] was 0.052 OD450 and the OD [15] was 0.06 OD450. It also gave an OD [16] of 0.051 OD450, an OD [17] of 0.166 OD450 and an OD (CFC-1 [18]) of 3.12 OD450. It also gave an OD [19] of 3.08 OD450, an OD [20] of 1.18 OD450 and an OD [21] of 0.054 OD450. It also gave an OD [22] of 0.071 OD450, an OD [23] of 0.091 OD450 and an OD [24] of 0.06 OD450. For the same binder, the OD [25] was 0.08 OD450, the OD (msFibα XH [26]) was 0.076 OD450 and the OD (huFibα XG [27]) was 0.186 OD450. The OD (CFC-1 [28]) was 3.03 OD450, the OD (msFibβ XG [29]) was 0.515 OD450 and the OD (huFibα XH [30]) was 0.08 OD450. The OD (msFibα XG [31]) was 0.237 OD450 and the OD (msVim XS/XL [32]) was 0.515 OD450.
